Tests used:
[1] = molecular target: HIV-1 Env of isolate MGRM-A-012 (HIV-1); test: cell-based or functional assay
[2] = molecular target: HIV-1 JR-CSF Env R304A (HIV-1 JR-CSF) (UniProt P20871); test: cell-based or functional assay
[3] = molecular target: HIV-1 Env of isolate MGRM-C-026 (HIV-1); test: cell-based or functional assay
[4] = molecular target: HIV-1 JR-CSF Env N392Q (HIV-1 (isolate JR-CSF)) (UniProt P20871); test: cell-based or functional assay
[5] = molecular target: HIV-1 JR-CSF Env S199A (HIV-1 JR-CSF) (UniProt P20871); test: cell-based or functional assay
[6] = molecular target: HIV-1 JR-CSF Env P299A (HIV-1 JR-CSF) (UniProt P20871); test: cell-based or functional assay
[7] = molecular target: HIV-1 JR-CSF Env R419A (HIV-1 (isolate JR-CSF)) (UniProt P20871); test: cell-based or functional assay
[8] = molecular target: HIV-1 93IN905 envelope glycoprotein (Env) (HIV-1); test: cell-based or functional assay
[9] = molecular target: HIV-1 JR-CSF Env L416A (HIV-1 (isolate JR-CSF)) (UniProt P20871); test: cell-based or functional assay
[10] = molecular target: HIV-1 Env of isolate MGRM-A-008 (HIV-1); test: cell-based or functional assay
[11] = molecular target: HIV-1 Env of isolate MGRM-A-004 (HIV-1); test: cell-based or functional assay
[12] = molecular target: HIV-1 92BR020 envelope glycoprotein (Env) (HIV-1); test: cell-based or functional assay
[13] = molecular target: HIV-1 NL43 envelope glycoprotein (Env) (HIV-1); test: cell-based or functional assay
[14] = molecular target: HIV-1 JR-CSF Env G324A (HIV-1 isolate JR-CSF) (UniProt P20871); test: cell-based or functional assay
[15] = molecular target: Env of the clade F HIV-1 pseudoviruses of the cross-clade 162-pseudovirus panel (n = 15); test: cell-based or functional assay
[16] = molecular target: HIV-1 JR-CSF Env F210A (HIV-1 JR-CSF) (UniProt P20871); test: cell-based or functional assay
[17] = molecular target: Env of all HIV-1 pseudoviruses of the cross-clade 162-pseudovirus panel (n = 162); test: cell-based or functional assay
[18] = molecular target: Env of the clade C HIV-1 pseudoviruses of the cross-clade 162-pseudovirus panel (n = 27); test: cell-based or functional assay
[19] = molecular target: HIV-1 Env of isolate 93UG077 (HIV-1); test: cell-based or functional assay
[20] = molecular target: HIV-1 Env of isolate MGRM-AE-001 (HIV-1); test: cell-based or functional assay
[21] = molecular target: HIV-1 Env of isolate MGRM-A-009 (HIV-1); test: cell-based or functional assay
[22] = molecular target: HIV-1 JR-CSF Env S387A (HIV-1 (isolate JR-CSF)) (UniProt P20871); test: cell-based or functional assay
[23] = molecular target: Env of the clade B HIV-1 pseudoviruses of the cross-clade 162-pseudovirus panel (n = 31); test: cell-based or functional assay
[24] = molecular target: HIV-1 JR-CSF Env S306A (HIV-1 JR-CSF) (UniProt P20871); test: cell-based or functional assay
[25] = molecular target: HIV-1 JR-CSF Env I420A (HIV-1 (isolate JR-CSF)) (UniProt P20871); test: cell-based or functional assay
[26] = molecular target: HIV-1 JR-CSF Env I309A (HIV-1 JR-CSF) (UniProt P20871); test: cell-based or functional assay
[27] = molecular target: HIV-1 JR-CSF Env N355A (HIV-1 isolate JR-CSF) (UniProt P20871); test: cell-based or functional assay
[28] = molecular target: HIV-1 JR-CSF Env I424A (HIV-1 (isolate JR-CSF)) (UniProt P20871); test: cell-based or functional assay
[29] = molecular target: HIV-1 JR-CSF Env I423A (HIV-1 (isolate JR-CSF)) (UniProt P20871); test: cell-based or functional assay
[30] = molecular target: HIV-1 JR-CSF Env T297A (HIV-1 JR-CSF) (UniProt P20871); test: cell-based or functional assay
[31] = molecular target: HIV-1 JR-CSF Env N302A (HIV-1 JR-CSF) (UniProt P20871); test: cell-based or functional assay
[32] = molecular target: HIV-1 JR-CSF Env T341A (HIV-1 isolate JR-CSF) (UniProt P20871); test: cell-based or functional assay
[33] = molecular target: HIV-1 JR-CSF Env I415A (HIV-1 (isolate JR-CSF)) (UniProt P20871); test: cell-based or functional assay
[34] = molecular target: HIV-1 MGRM-C-027 envelope glycoprotein (Env) (HIV-1); test: cell-based or functional assay
[35] = molecular target: HIV-1 JR-CSF Env T413A (HIV-1 (isolate JR-CSF)) (UniProt P20871); test: cell-based or functional assay
[36] = molecular target: HIV-1 JR-CSF Env R350A (HIV-1 isolate JR-CSF) (UniProt P20871); test: cell-based or functional assay
[37] = molecular target: HIV-1 JR-CSF Env H330A (HIV-1 isolate JR-CSF) (UniProt P20871); test: cell-based or functional assay
[38] = molecular target: HIV-1 JR-CSF Env P313A (HIV-1 JR-CSF) (UniProt P20871); test: cell-based or functional assay
[39] = molecular target: HIV-1 JR-CSF Env I323A (HIV-1 isolate JR-CSF) (UniProt P20871); test: cell-based or functional assay
[40] = molecular target: HIV-1 JR-CSF Env W395A (HIV-1 (isolate JR-CSF)) (UniProt P20871); test: cell-based or functional assay
[41] = molecular target: JR-FL gp120 ΔV1/ΔV2 (HIV-1 (isolate JR-FL)); test: ELISA on coated gp120; EC50 by nonlinear regression
[42] = molecular target: WT JR-FL gp120 (HIV-1 (isolate JR-FL)); test: as above

B1: PGT-125 (antibody, V domains shown)
VH: QSQLQESGPRLVEASETLSLTCNVSGESTGACTYFWGWVRQAPGKGLEWIGSLSHCQSFWGSGWTFHNPSLKSRLTISLDTPKNQVFLKLTSLTAADTATYYCARFDGEVLVYNHWPKPAWVDLWGRGIPVTVSS
VL: QSALTQPPSASGSPGQSITISCNGTATNFVSWYQQFPDKAPKLIIFGVDKRPPGVPDRFSGSRSGTTASLTVSRLQTDDEAVYYCGSLVGNWDVIFGGGTTLTVL
B1 showed an IC50 (µg/mL), pseudovirus neutralization [1] of 0.177 µg/mL, a Fold IC50 increase relative to wild-type [2] of 1.9 fold and a Polyclonal Transfectant Neutralization Index (well 5123 A6) [3] of 88.3. It also gave a Primary Neutralization Index (B cell culture well 5123 A6) [3] of 512, a Fold IC50 increase relative to wild-type [4] of 1.2 fold and a Fold IC50 increase relative to wild-type [5] of 0.7 fold. The Fold IC50 increase relative to wild-type [6] was 0.2 fold, the Fold IC50 increase relative to wild-type [7] was 1 fold and the IC50 neutralization [8] was 0.0137 µg/mL. The Fold IC50 increase relative to wild-type [9] was 0.8 fold, the IC50 (µg/mL), pseudovirus neutralization [10] was over 50 µg/mL and the IC50 (µg/mL), pseudovirus neutralization [11] was over 50 µg/mL. It also gave an IC50 neutralization [12] of 0.0214 µg/mL, an IC50 neutralization [13] of over 10 µg/mL and a Fold IC50 increase relative to wild-type [14] of 1.7 fold. It also gave a Median IC50 against viruses neutralized with an IC50 <50 µg/ml [15] of 0.04 µg/mL, a Fold IC50 increase relative to wild-type [16] of 1.4 fold and a Median IC50 against viruses neutralized with an IC50 <50 µg/ml [17] of 0.04 µg/mL. For the same binder, the Median IC50 against viruses neutralized with an IC50 <50 µg/ml [18] was 1.83 µg/mL, the IC50 (µg/mL), pseudovirus neutralization [19] was 0.012 µg/mL and the IC50 (µg/mL), pseudovirus neutralization [20] was 2.95 µg/mL. The IC50 (µg/mL), pseudovirus neutralization [21] was 0.009 µg/mL, the Fold IC50 increase relative to wild-type [22] was 0.6 fold and the Median IC50 against viruses neutralized with an IC50 <50 µg/ml [23] was 0.02 µg/mL. The Fold IC50 increase relative to wild-type [24] was 1.2 fold, the Fold IC50 increase relative to wild-type [25] was 1.1 fold and the Fold IC50 increase relative to wild-type [26] was 1 fold. The Fold IC50 increase relative to wild-type [27] was 1.2 fold, the Fold IC50 increase relative to wild-type [28] was 0.7 fold and the Fold IC50 increase relative to wild-type [29] was 5 fold. For the same binder, the Fold IC50 increase relative to wild-type [30] was 0.9 fold, the Fold IC50 increase relative to wild-type [31] was 0.7 fold and the Fold IC50 increase relative to wild-type [32] was 1.1 fold. The Fold IC50 increase relative to wild-type [33] was 0.3 fold, the IC50 neutralization [34] was over 10 µg/mL and the Fold IC50 increase relative to wild-type [35] was 0.5 fold. It also gave a Fold IC50 increase relative to wild-type [36] of 0.6 fold, a Fold IC50 increase relative to wild-type [37] of 0.7 fold and a Fold IC50 increase relative to wild-type [38] of 0.3 fold. It also gave a Fold IC50 increase relative to wild-type [39] of 0.9 fold, a Fold IC50 increase relative to wild-type [40] of 0.9 fold and an EC50 [41] of 0.6 µg/mL. It also gave an EC50 [42] of 0.2 µg/mL.

B2: PGT-123 (antibody, V domains shown)
VH: QLHLQESGPGLVKPPETLSLTCSVSGASINDAYWSWIRQSPGKRPEWVGYVHHSGDTNYNPSLKRRVTFSLDTAKNEVSLKLVDLTAADSATYFCARALHGKRIYGIVALGELFTYFYMDVWGKGTAVTVSS
VL: SSMSVSPGETAKISCGKESIGSRAVQWYQQKPGQPPSLIIYNNQDRPAGVPERFSASPDFRPGTTATLTITNVDAEDEADYYCHIYDARGGTNWVFDRGTTLTVL
With B2 the IC50 (µg/mL), pseudovirus neutralization [1] was 0.192 µg/mL, the Fold IC50 increase relative to wild-type [2] was 0.7 fold and the Primary Neutralization Index (B cell culture well 4858 P8) [3] was 33.8. The Fold IC50 increase relative to wild-type [4] was 1 fold, the Fold IC50 increase relative to wild-type [5] was 1.1 fold and the Fold IC50 increase relative to wild-type [6] was 0.7 fold. It also gave a Fold IC50 increase relative to wild-type [7] of 0.7 fold, an IC50 neutralization [8] of 0.0071 µg/mL and a Fold IC50 increase relative to wild-type [9] of 0.9 fold. For the same binder, the IC50 (µg/mL), pseudovirus neutralization [10] was over 50 µg/mL, the IC50 (µg/mL), pseudovirus neutralization [11] was over 50 µg/mL and the IC50 neutralization [12] was 0.013 µg/mL. It also gave an IC50 neutralization [13] of over 10 µg/mL, a Fold IC50 increase relative to wild-type [14] of 14.5 fold and a Median IC50 against viruses neutralized with an IC50 <50 µg/ml [15] of 0.09 µg/mL. For the same binder, the Fold IC50 increase relative to wild-type [16] was 2.8 fold, the Median IC50 against viruses neutralized with an IC50 <50 µg/ml [17] was 0.03 µg/mL and the Median IC50 against viruses neutralized with an IC50 <50 µg/ml [18] was 0.01 µg/mL. It also gave an IC50 (µg/mL), pseudovirus neutralization [19] of 0.028 µg/mL, an IC50 (µg/mL), pseudovirus neutralization [20] of over 50 µg/mL and an IC50 (µg/mL), pseudovirus neutralization [21] of 0.004 µg/mL. It also gave a Fold IC50 increase relative to wild-type [22] of 0.9 fold, a Median IC50 against viruses neutralized with an IC50 <50 µg/ml [23] of 0.02 µg/mL and a Fold IC50 increase relative to wild-type [24] of 0.5 fold. For the same binder, the Fold IC50 increase relative to wild-type [25] was 3.2 fold, the Fold IC50 increase relative to wild-type [26] was 1.6 fold and the Fold IC50 increase relative to wild-type [27] was 0.5 fold. It also gave a Fold IC50 increase relative to wild-type [28] of 0.5 fold, a Fold IC50 increase relative to wild-type [29] of 1.5 fold and a Fold IC50 increase relative to wild-type [30] of 0.3 fold. For the same binder, the Fold IC50 increase relative to wild-type [31] was 1.3 fold, the Fold IC50 increase relative to wild-type [32] was 0.3 fold and the Fold IC50 increase relative to wild-type [33] was 0.4 fold. The IC50 neutralization [34] was 0.0169 µg/mL, the Fold IC50 increase relative to wild-type [35] was 0.4 fold and the Fold IC50 increase relative to wild-type [36] was 0.5 fold. The Fold IC50 increase relative to wild-type [37] was 0.3 fold, the Fold IC50 increase relative to wild-type [38] was 0.2 fold and the Fold IC50 increase relative to wild-type [39] was 1 fold. The Fold IC50 increase relative to wild-type [40] was 0.4 fold, the EC50 [41] was 0.3 µg/mL and the EC50 [42] was 0.2 µg/mL.

From patent US20200024330A1
